Results published in publication PMC9553925.

Legend:
[1] = target: ATP synthase subunit-c (T. brucei) (T. brucei (endogenous in procyclic Lister strain 427)); experiment: cryo-EM structure; ATP synthase dimers purified from T. brucei procyclic mitochondria in GDN with added β-DDM and phospholipids, pH 8.0; consensus dimer 3.2 Å, membrane region 2.7 Å, peripheral stalk 3.7 Å, rotor 3.7 Å, ten rotational substates 3.5–4.3 Å
[2] = target: Trypanosoma brucei mitochondrial F1Fo ATP synthase (monomer unit of the dimer) (T. brucei (endogenous in procyclic Lister strain 427)) (UniProt P24499); experiment: as above

Substance	stoichiometry N [1]	stoichiometry N [2]
ATP synthase subunit-c (T. brucei) (natural protein)	10	–
Trypanosoma brucei mitochondrial F1Fo ATP synthase (monomer unit of the dimer) (from UniProt P24499 1-229) (complex)	–	2
